Assay results: patent US20200010567A1 (NEURIMMUNE, published 2020)

Legend:
(GR)15: H-C(GR)15-OH = biological target: T1, (GR)15: H-C(GR)15-OH; experiment: indirect ELISA, coated uncoupled peptide
T1 construct: synthetic, not coupled to BSA; also called poly-GR DPR protein peptide
T1 peptide: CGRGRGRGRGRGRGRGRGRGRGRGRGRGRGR

GR10: H-(GR)10HHHHHH-NH2 = biological target: T2, GR10: H-(GR)10HHHHHH-NH2 (C-terminal amide); experiment: indirect ELISA, His-tagged peptide coated at 50 ug/ml, antibody titrated
T2 peptide: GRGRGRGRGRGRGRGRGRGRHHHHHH
Procedure: (§1) 96-well microplates (Corning Incorporated, Corning, USA) were coated with dipeptide repeat protein peptides at a concentration of 50 μg/ml in coating buffer (15 mM Na₂CO₃, 35 mM NaHCO₃, pH 9.42). Non-specific binding sites were blocked for 1 h at room temperature with PBS/0.1% Tween®-20 containing 2% BSA (Sigma-Aldrich, Buchs, Switzerland). Primary antibodies were diluted to the indicated concentrations and incubated 1 h at room temperature, followed by incubation with a donkey anti-human IgG Fcγ-specific antibody conjugated with HRP (Jackson ImmunoResearch Laboratories, Inc., West Grove, USA). Binding was determined by measurement of HRP activity in a standard colorimetric assay. EC₅₀ values were estimated by non-linear regression using GraphPad Prism software (San Diego, USA).
(§2) High affinity binding was detected for poly-GA DPRs harboring 10 or 20 (GA)-repeats, reflected in an EC₅₀ in the subnanomolar or low nanomolar range (FIGS. 7A, 7C-7I).

(PR)15: H-C(PR)15-OH = biological target: T3, (PR)15: H-C(PR)15-OH; experiment: indirect ELISA, coated uncoupled peptide
T3 construct: synthetic, not coupled to BSA; also called poly-PR DPR protein peptide
T3 peptide: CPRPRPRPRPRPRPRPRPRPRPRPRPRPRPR

[1] = biological target: T4, (GA)15: H-CHHHHHH(GA)15-OH; experiment: indirect ELISA, coated peptide
T4 construct: synthetic, not coupled to BSA; also called poly-GA DPR protein peptide
T4 peptide: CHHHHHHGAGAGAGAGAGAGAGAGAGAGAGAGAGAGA

PA2: H-(PA)2HHHHHH-NH2 = biological target: T5, PA2: H-(PA)2HHHHHH-NH2; experiment: indirect ELISA, His-tagged peptide coated at 50 ug/ml, antibody titrated [also D00028 FIG. 7P]
T5 peptide: H-PAPAHHHHHH-NH2
Procedure: as §1, §2

PA3: H-(PA)3HHHHHH-NH2 = biological target: T6, PA3: H-(PA)3HHHHHH-NH2; experiment: as above
T6 peptide: H-PAPAPAHHHHHH-NH2
Procedure: as §1, §2

PA4: H-(PA)4HHHHHH-NH2 = biological target: T7, PA4: H-(PA)4HHHHHH-NH2; experiment: as above
T7 peptide: H-PAPAPAPAHHHHHH-NH2
Procedure: as §1, §2

GP6: H-(GP)6HHHHHH-NH2 = biological target: T8, GP6: H-(GP)6HHHHHH-NH2; experiment: indirect ELISA, His-tagged peptide coated at 50 ug/ml, antibody titrated
T8 peptide: H-GPGPGPGPGPGPHHHHHH-NH2
Procedure: as §1, §2

GA5: H-(GA)5HHHHHH-NH2 = biological target: T9, GA5: H-(GA)5HHHHHH-NH2; experiment: indirect ELISA, His-tagged peptide coated at 50 ug/ml, antibody titrated [also D00025 FIG. 7I]
T9 peptide: H-GAGAGAGAGAHHHHHH-NH2
Procedure: as §1, §2

GA4: H-(GA)4HHHHHH-NH2 = biological target: T10, GA4: H-(GA)4HHHHHH-NH2; experiment: as above
T10 peptide: H-GAGAGAGAHHHHHH-NH2
Procedure: as §1, §2

GA2: H-(GA)2HHHHHH-NH2 = biological target: T11, GA2: H-(GA)2HHHHHH-NH2; experiment: as above
T11 peptide: H-GAGAHHHHHH-NH2
Procedure: as §1, §2

GA3: H-(GA)3HHHHHH-NH2 = biological target: T12, GA3: H-(GA)3HHHHHH-NH2; experiment: as above
T12 peptide: H-GAGAGAHHHHHH-NH2
Procedure: as §1, §2

[2] = biological target: T4, (GA)15: H-CHHHHHH(GA)15-OH; experiment: indirect ELISA, uncoupled peptide coated, antibody titrated [also D00012 FIG. 3C]
Procedure: as §1, with “In brief, dipeptide repeat proteins were synthesized and purified by Schafer-N(Copenhagen, Denmark): (GA)₁₅: H-CHHHHHH(GA)₁₅-OH; (GP)₁₅: H-C(GP)₁₅-OH; (GR)₁₅: H-C(GR)₁₅-OH; (PA)₁₅: H-C(PA)₁₅-OH; (PR)₁₅: H—C(PR)₁₅-OH. DPR protein peptides were then conjugated via a bifunctional linker (SMCC) to bovine serum albumin (BSA). 96-well microplates” for “96-well microplates”, “coated with BSA-coupled or -uncoupled dipeptide repeat” for “coated with dipeptide repeat”, “concentration of either 5 μg/ml or 20 μg/ml in” for “concentration of 50 μg/ml in”

B1: NI-308.6B11 (antibody, V domains shown)
VH: EVQLVQSGAEVKRPGASVKVSCKVSGYTLTELSMHWVRQAPGKGLEWMGGFDPEDGETVYAQKFQGRVTMTEDTSTDTAYMELSSLRSEDTALYHCATYGSSWHWNEGNEGSYYFDYWGQGTLVTVSS
VL: CDIQMTQSPSSLSASVGDRVTITCQASQDISIYLNWYQQKPGKAPKLLIYDASNLETGVPSRFSGSGSGTDFTFTISGLQPEDVARYYCQQYDDLPITFGQGTRLEIK
notes: Recombinant complete human IgG1, kappa
With B1 as the binder, how does the EC50 ((GR)15: H-C(GR)15-OH) read?
Its EC50 is 0.94 nM.

And the EC50 (GR10: H-(GR)10HHHHHH-NH2)?
Its EC50 is 1.28 nM.

B2: NI-308.24E11 (antibody, V domains shown)
VH: QVQLQESGPGLVKPSETLSLTCTVSTTSLRSYFWSWIRQPPGKGLEWIGYVYYSGSTIYNPSLKNRVTISIDTSKNQFSLNLRSVTAADTAMYFCARGVPAETDARDFPPYYFDHWGQGTLVTVSS
VL: CDIQLTQSPSSLSASVGNRITFTCQASQDIRYYLNWYQQKPGKAPKLLIYDVSNLDTGVPPRFSGSGSGTNFTFTISSLQPEDIAVYYCQQYEGLPVTFGGGTKVEIK
notes: as for B1
Which results are given for B2?
EC50 ((PR)15: H-C(PR)15-OH): 12.8 nM; binding result [1]: no binding

B3: NI-308.4M1 (antibody, V domains shown)
VH: EVQLVETGGGVVQPGGSLRLSCEASGFTIGTYAMHWVRQFPGKGLDWVAVISFDGTTEYYTDAVKGRFTISRDNAKNTLYLQMNYLRGDDTAIYFCARDFTSSGETGSWTQVPDLWGQGTLVTVSS
VL: CEIVMTQSPATLSLSPGERATLSCRASQSVTKYLAWYQQKPGQAPRLLIYDVSYRAAGTPARFSGSGSGTDFTLTISSLEPEDFAVYYCHQRSSWPPVTFGGGTKVEIK
notes: as for B1
Does B3 bind (PA2: H-(PA)2HHHHHH-NH2)?
Result: no binding (tested: about 4x10^5 pM (last point))

Does B3 bind (PA3: H-(PA)3HHHHHH-NH2)?
Result: no binding (tested: about 4x10^5 pM (last point))

Does B3 bind (PA4: H-(PA)4HHHHHH-NH2)?
Result: no binding (tested: about 4x10^5 pM (last point))

B4: NI-308.46E9 (antibody, V domains shown)
VH: QVQLQESGPGLVKPSETLSLTCTVSGASISGSTYYWGWIRQPPGKGLEYIGRIYYSGSTYYNPSLKSRATISVDTSKNQLSLTLSSVTAADTAVYYCVRPFYAGSGNSPFDYWGQGTLVTVSS
VL: CEIVLTQSPATVSVSPGERATLSCRASQSVSTNLAWYQQKPGQPPRLLIYGASTRATGIPARFSGSGSGAEFTLTISSLQSEDFVVYYCQQYNNWPPAFGGGTKVEIK
notes: as for B1
With B4 as the binder, how does the EC50 (GP6: H-(GP)6HHHHHH-NH2) read?
The EC50 was greater than 200 nM.

B5: NI-308.45C2 (antibody, V domains shown)
VH: QLQLQESGPGLVKPSQILSLTCAISGDSVFSNSAAWNWIRQSPSRGLEWLGRTYYRSKWDNDYAPSVKSRISINPDTSKNQFSLQLNSVTPEDTAVYYCAREVAYCGGDCYSVSFDYWGQGTLVTVSS
VL: not shown
notes: as for B1
Which results are given for B5?
binding result (GA5: H-(GA)5HHHHHH-NH2): no binding (tested: about 4x10^5 pM (last point)); binding result (GA4: H-(GA)4HHHHHH-NH2): no binding (tested: about 4x10^5 pM (last point)); binding result (GA2: H-(GA)2HHHHHH-NH2): no binding (tested: about 4x10^5 pM (last point)); binding result (GA3: H-(GA)3HHHHHH-NH2): no binding (tested: about 4x10^5 pM (last point))

B6: NI-308.15O7 (antibody, V domains shown)
VH: QVQLVESGGGVVQPGRSLRLSCAASGFTFSNHAMHWVRQAPGKGLEWVAVISYDGENTYYADSIEGRFTISRDNFKNTLFLQMYSLTADDTAMYFCARGGRRGHFTSYYLDYWGQGTLVTVSS
VL: CDIQMTQSPSSLSASVGDRVTITCRASQNIDKYLNWYQQIPGKAPKLLIYAASSLHSGVPSRFSGSGSGTDFSLTISSLQPEDFAIYYCQQSYSSFRTFGQGTKLEIK
B6 was tested. Which EC50 [2] did it give?
The EC50 was 0.18 nM.
